In assay [1] the target is Mouse CD40 on cells (A20 lymphoma cells, EL4-mCD40 cells, peritoneal macrophages, splenic dendritic cells) (mouse) (UniProt P27512). Description: flow cytometry on A20 cells, anti-human Ck-APC (axis hCk); negative control.
The target in assay [2] is T1, Human CD40 on cells (Raji, Daudi, IM-9) (human, UniProt P25942 21-277).
T1 construct: whole, on cells; also called cell surface CD40; hCD40
Description: flow cytometry on Raji cells, 1 ug/1x10^5 cells, anti-human Ck-APC (axis hCk); negative control. For orientation: Flow cytometry measures light scatter and fluorescence of single cells or particles in a stream.

The target of assay [3] is T2, Human CS1-Fc fusion protein (CS1 ectodomain S23~M226 with C-terminal human IgG1 Fc) (human, UniProt Q9NQ25 23-226).
T2 construct: range 23-226; Made in-house in Expi293 cells; also called recombinant CS1-Fc fusion protein; not shown: C-terminal human IgG1 Fc
T2 sequence (looked up): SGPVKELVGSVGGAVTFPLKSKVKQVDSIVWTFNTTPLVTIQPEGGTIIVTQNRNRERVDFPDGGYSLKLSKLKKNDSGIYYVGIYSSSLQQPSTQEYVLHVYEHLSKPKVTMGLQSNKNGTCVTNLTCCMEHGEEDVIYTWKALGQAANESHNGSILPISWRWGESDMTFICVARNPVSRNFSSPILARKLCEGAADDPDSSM
Nature of the assay: serial dilution ELISA of purified scFv-Cκ-His on coated hCS1-Fc, OD at 405 nm, detection with anti-human Cκ-HRP. Here is the method: (§1) FIGS. 20A-C The individual specific binders are screened by ELISA and 23 different scFv clones were further characterized by sequencing. FIG. 20A: Reactivity of the selected scFv clones to human CS1 was assayed by measuring absorbance at 405 nm. The individual scFv clones were reactive to human CS1-His (▪) and human CS1-Fc ( ), but not hFc ( ) or BSA (□).Binding activity determination of selected clones specific to human CS1. The three clones selected from the phage ELISA were verified in a serial dilution ELISA after expression and purification as a form of scFv-Cκ-His. The y-axis of the graphs depicts the signal for serial dilutions of the antibodies, and the x-axis depicts the antibody concentration in the wells of the dilution series. The binding to human CS1-Fc is indicated as red, while the binding to BSA is indicated as blue. […] FIG. 20B: Binding activity of anti-human CS1 cFv-Cκ-His on J558/CS1 or J558 cells measured using flow cytometry. […] Binding of scFv adapters were detected by adding APC conjugated anti-human Cκ antibodies or APC conjugated anti-His tag secondary antibodies. FIG. 20C: Binding activity of anti-human CS1 scFv-Cκ-His on MM1.s cells measured using flow cytometry. Binding of the antibodies were detected by adding either an APC conjugated anti-human Cκ antibodies, or an APC conjugated anti-His tag secondary antibodies, respectively. […]
Background: In an ELISA, binding on a coated surface is turned into a signal by an enzyme label.

For assay [4], the target named is T3, BSA (bovine serum albumin) (bovine, UniProt P02769 25-607).
T3 construct: Control antigen in the phage ELISA
Description: serial dilution ELISA on wells with blocking only (the legend calls this the binding to BSA), OD at 405 nm. Here is the method:
as §1

The target of assay [5] is T4, Recombinant mouse CD40-Fc (1215-CD, R&D systems) (mouse, UniProt P27512 24-193, limits assumed).
T4 construct: Bought protein; also called recombinant CD40 protein
T4 sequence (looked up): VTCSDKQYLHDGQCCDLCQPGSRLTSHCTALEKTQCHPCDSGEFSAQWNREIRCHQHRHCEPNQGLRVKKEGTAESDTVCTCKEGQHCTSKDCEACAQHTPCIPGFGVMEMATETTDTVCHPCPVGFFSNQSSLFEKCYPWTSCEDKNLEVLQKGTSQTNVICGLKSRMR
Nature of the assay: ELISA, mouse CD40-Fc coated at 2.5 ug/ml, serial dilutions 0.0001 to 1000 nM, anti-human Ck-HRP, absorbance 450 nm. Here is the method:
FIG. 8A: Recombinant mouse CD40-Fc (2.5 μg/ml) was coated in ELISA plate and the serial diluents of C1C02-Cκ or the irrelevant scFv-Cκ were loaded. The bound scFv-Cκs were detected by a secondary anti-human Cκ-HRP followed by a chromogenic reaction with TMB substrate. The absorbance was measured at 450 nm. […] FIG. 8B: A20, a CD40-expressing mouse B lymphoma cell line, was stained with C1C02-Cκ (1 μg/1×10⁵ cells) or the irrelevant scFv-Cκ and then stained with a secondary anti-human Cκ-APC. The binding intensity of the scFv-Cκs was analyzed by flow cytometry. The numbers are the mean fluorescence intensities (MFIs) of the binding.
White leghorn chickens were immunized four times with recombinant mouse CD40 (50324-M08H, Sino Biological, China) or human CD40 (10774-H08H, Sino Biological) protein. Total RNA from the bursa of Fabricius, spleen, and bone marrow was isolated using TRIzol reagent (Invitrogen, USA), and cDNA was synthesized using a SuperScript III first-strand cDNA synthesis kit with oligo (dT) primers (Invitrogen) according to the manufacturer's instructions. The scFv phage-display libraries were constructed from the cDNAs as described previously⁵¹. […] The binding of the scFv-Cκs was measured with the secondary antibody (anti-human Cκ-HRP; AP502P, Sigma-Aldrich, USA).

Assay [6] has as its target T5, Biotin conjugated 6×His peptide (also: biotin conjugated, site not given here).
T5 construct: also called histidine hexamer peptide
T5 peptide: HHHHHH
Nature of the assay: SPR, Biacore 8K, CM5 chip; biotin 6×His peptide captured on streptavidin, scFv injected in 2-fold dilutions. An excerpt:
(§2) Since the murine anti-His antibody had decreased binding affinity against 6×His peptide after humanization, affinity maturation was further performed to increase it and chicken anti-CD40 antibody (2B1) was only humanized. Serial dilution antibodies at 6 concentrations were used to characterize the kinetics of antibody-antigen binding by SPR. […] So, there was not affinity loss against their antigen after humanization (FIG. 22B).
(§3) A Biacore 8K SPR system (Cytiva) equipped with CM5 sensor chip (Cytiva) was used to generate binding kinetic rate and affinity constants. To prepare the capture surfaces for anti-His antibodies, streptavidin was immobilized, followed by biotin conjugated 6×His peptide was captured. The antibodies were 2-fold serial diluted with 1×PBS, then injected at a flow rate of 30 μL/min for 3 minutes, allowing 10 minutes dissociation phase. The surface was regenerated using 10 mM glycine, pH 1.5. The kinetics were analyzed using Biacore 8K evaluation software, version 1.0 (Cytiva). In case of anti-CD40 antibodies, anti-human Fc IgG (Jackson ImmunoResearch) was immobilized, and then CD40-hFc protein (Acro Biosystems, #CD0-H5253) was captured. The antibodies were 2-fold serial diluted with HBS-EP+ buffer (10 mm HEPES, 150 mm sodium chloride, 3 mm EDTA, 0.05% Polysorbate 20), then injected at a flow rate of 30 μL/min for 4 minutes, allowing >15 minutes dissociation phase.

Assay [7] has as its target T5, Biotin conjugated 6×His peptide. Description: SPR, Biacore 8K; reference is the parental murine anti-His antibody.
From the text: as §2, §3
A general note: In SPR one partner is held on a chip, and binding of the other changes the refractive index at the surface.

Assay [8] has the same target. Nature of the assay: SPR (Biacore 8K): biotin 6×His peptide captured on immobilized streptavidin, scFv injected in 2-fold dilutions (6 curves).
From the text: as §2, §3

No end group written: not given here.

T3 sequence (P02769 25-607 limits assumed): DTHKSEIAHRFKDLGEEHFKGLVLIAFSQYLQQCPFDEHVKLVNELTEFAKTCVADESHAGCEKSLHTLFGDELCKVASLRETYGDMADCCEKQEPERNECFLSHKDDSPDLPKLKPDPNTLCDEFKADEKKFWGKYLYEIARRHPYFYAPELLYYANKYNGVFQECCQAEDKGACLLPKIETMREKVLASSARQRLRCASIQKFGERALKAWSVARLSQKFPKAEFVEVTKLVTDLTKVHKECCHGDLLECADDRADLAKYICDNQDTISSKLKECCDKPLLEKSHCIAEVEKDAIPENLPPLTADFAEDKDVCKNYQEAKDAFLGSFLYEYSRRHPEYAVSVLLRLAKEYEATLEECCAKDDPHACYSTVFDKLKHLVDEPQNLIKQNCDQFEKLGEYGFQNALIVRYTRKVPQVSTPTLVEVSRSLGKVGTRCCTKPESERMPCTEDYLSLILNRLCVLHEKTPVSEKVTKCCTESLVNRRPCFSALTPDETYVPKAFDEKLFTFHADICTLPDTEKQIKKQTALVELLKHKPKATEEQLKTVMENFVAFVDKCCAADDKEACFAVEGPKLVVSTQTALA
T1 sequence (P25942 21-277): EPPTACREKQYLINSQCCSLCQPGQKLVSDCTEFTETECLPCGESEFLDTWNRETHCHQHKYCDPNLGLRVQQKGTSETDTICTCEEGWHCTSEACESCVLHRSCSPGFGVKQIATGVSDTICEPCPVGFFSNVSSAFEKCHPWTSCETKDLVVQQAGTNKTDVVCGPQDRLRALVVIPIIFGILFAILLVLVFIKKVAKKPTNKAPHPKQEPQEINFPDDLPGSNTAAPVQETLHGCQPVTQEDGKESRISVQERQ
Sequence of Mouse CD40 on cells (A20 lymphoma cells, EL4-mCD40 cells, peritoneal macrophages, splenic dendritic cells) (mouse) (P27512 20-289): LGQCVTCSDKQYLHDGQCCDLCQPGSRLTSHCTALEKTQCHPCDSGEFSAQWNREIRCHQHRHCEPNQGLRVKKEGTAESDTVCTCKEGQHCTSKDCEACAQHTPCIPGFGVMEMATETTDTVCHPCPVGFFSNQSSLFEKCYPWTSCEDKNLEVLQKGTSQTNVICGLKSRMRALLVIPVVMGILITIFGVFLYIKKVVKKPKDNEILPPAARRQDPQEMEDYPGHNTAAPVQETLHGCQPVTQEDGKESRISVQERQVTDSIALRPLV

For Irrelevant Ab-Ck (scFv), the MFI was determined as 24.6 in assay [1] and 3.78 in assay [2].

B1: hCS1(#57)-Ck-His (anti-human CS1 scFv-Cκ-(G4S)2-6×His, clone #57) (scFv)
scFv: QAALTQPSSVSANLGETVKITCSGSSGNNYGWYQQKSPGSAPVTVIYYNDNRPSDIPSRFSGSKSGSTHTLTITGVQADDEAVYFCGSGDSSSNPGIFGAGTTLTVLGQSSRSSGGGGSSGGGGSAVTLDESGGGLQTPGGALSLVCKASGFTFSSHGMAWVRQAPGKGLEWVAGIDDSGSSTGYGSAVKGRATISRDNGQSTVRLQLNNLRAEDTGIYYCAKAYDTGCGWAGYNVYDCSADQIDAWGHGTEVIVSSTSGQAGQRTVAAPSVFIFPPSDEQLKSGTASVVCLLNNFYPREAKVQWKVDNALQSGNSQESVTEQDSKDSTYSLSSTLTLSKADYEKHKVYACEVTHQGLSSPVTKSFNRGESGGGGSGGGGSHHHHHH
notes: also called #57 clone; His tagged CS1 adaptor
In general, EC50 refers to the concentration needed to bring the measured effect to its halfway point. Take B1: the EC50 in assay [3] stood at 9.3 nM. Further, in assay [4], the binding result was “no binding”.

B2: C1C02-Cκ (anti-mouse CD40 scFv clone C1C02 fused with human immunoglobulin kappa light chain constant region) (scFv)
scFv: QAALTQPSSVSANPGETVKITCSGGSSNYGWYQQKSPGSAPATVIYDNTNRPSDIPSRFSGALSGSTATLTITGVQVEDEAVYYCGGYDSGTYAGIFGAGTTLTVLGQSSRSSGGGGSSGGGGSAVTLDESGGGLQTPGGTLSLACKGSGFTFSSVNMQWVRQAPGKGLEWVAGISSDGSYTAYGAAVKGRATISRDNGQSTVRLQLNNLRAEDTAIYYCAKIAGGYYWDAAYSIDMWGHGTEVIVSSTSGQAGQRTVAAPSVFIFPPSDEQLKSGTASVVCLLNNFYPREAKVQWKVDNALQSGNSQESVTEQDSKDSTYSLSSTLTLSKADYEKHKVYACEVTHQGLSSPVTKSFNRGES
notes: also called C1C02 scFv; anti-mouse CD40 antibody (clone C1C02)
In the case of B2, the concentration for a half-maximal effect (EC50) in assay [5] came out at 1.28 nM.

B3: Humanized and affinity maturated anti-His scFv (hu3D5M) (scFv)
scFv: DIVMTQSPLSLPVTPGEPASISCRSSQSIVHSNRNTYLEWYLQKPGQSPQLLIYKVSNRFSGVPDRFSGSGSGTDFTLKISRVEAEDVGVYYCFQGSHVPFTFGQGTKLEIKRGGGGSGGGGSGGGGSGGGGSQVQLVQSGAEVKKPGASVKVSCKASGYTFTDYYMNWVRQAPGQGLEWMGDINPNHGGTYYNHKFKGRVTMTVDTSTSTAYMELRSLRSDDTAVYYCESQSGAYWGQGTTVTVSS
notes: also called humanized anti-His
The term Kd denotes the equilibrium constant for the complex coming apart. A lower Kd goes with tighter binding. What is called koff is the first-order rate constant of dissociation. A higher koff goes with a short-lived complex. A word on the kon: it is the second-order rate constant of association. Read a high kon as faster complex formation. In assay [6], B3 showed a dissociation constant (Kd) of 2.15 nM. The “fold higher affinity than parental antibody” value in assay [7] worked out at 5.8 fold. In assay [8], the off-rate constant (koff) came out at 0.00094 s⁻¹ and the kon came out at 437000 M⁻¹ s⁻¹.

B4: hCS1(#87)-Ck-His (anti-human CS1 scFv-Cκ-(G4S)2-6×His, clone #87) (scFv)
scFv: QAALTQPSSVSANPGETVKITCSGGGSYYGWYQQKSPGSAPVTVIYGNDKRPSNIPSRFSGSKSGSTATLTITGVQVEDEAVYFCGGWDSTDAGTFGAGTTLTVLGQSSRSSGGGGSSGGGGSAVTLDESGGGLQTPGGGLSLVCKASGFTFSSHGMAWVRQAPGKGLEWVAGIDDSGSSTGYGSAVKGRATISRDNGQSTVRLQLNNLRAEDTGIYYCAKAYDTGCGWAGYNVYDCSADQIDAWGHGTEVIVSSTSGQAGQRTVAAPSVFIFPPSDEQLKSGTASVVCLLNNFYPREAKVQWKVDNALQSGNSQESVTEQDSKDSTYSLSSTLTLSKADYEKHKVYACEVTHQGLSSPVTKSFNRGESGGGGSGGGGSHHHHHH
notes: also called #87 clone; His tagged CS1 adaptor
Take B4: the EC50 in assay [3] was determined as 2.9 nM. The binding result in assay [4] is recorded as “no binding”.

For the origin of these results see patent publication US20250018037A1 (SEOUL NATIONAL UNIVERSITY R AND DB FOUNDATION, published 2025).
